Assay results published in patent publication US7585967 (VASGENE THERAPEUTICS, dated 2009).

Experiments:
[1] = molecular target: T1, Mouse EphB4/Fc (R & D Systems) (mouse, UniProt P54761 16-539); experiment: immunofluorescence on frozen KS sections, FITC-labeled anti-human Fc antibody
T1 construct: Bought; also called EphB4/Fc fusion protein; not shown: Fc; detected with anti-human Fc / anti-human IgG-FITC
T1 sequence (looked up): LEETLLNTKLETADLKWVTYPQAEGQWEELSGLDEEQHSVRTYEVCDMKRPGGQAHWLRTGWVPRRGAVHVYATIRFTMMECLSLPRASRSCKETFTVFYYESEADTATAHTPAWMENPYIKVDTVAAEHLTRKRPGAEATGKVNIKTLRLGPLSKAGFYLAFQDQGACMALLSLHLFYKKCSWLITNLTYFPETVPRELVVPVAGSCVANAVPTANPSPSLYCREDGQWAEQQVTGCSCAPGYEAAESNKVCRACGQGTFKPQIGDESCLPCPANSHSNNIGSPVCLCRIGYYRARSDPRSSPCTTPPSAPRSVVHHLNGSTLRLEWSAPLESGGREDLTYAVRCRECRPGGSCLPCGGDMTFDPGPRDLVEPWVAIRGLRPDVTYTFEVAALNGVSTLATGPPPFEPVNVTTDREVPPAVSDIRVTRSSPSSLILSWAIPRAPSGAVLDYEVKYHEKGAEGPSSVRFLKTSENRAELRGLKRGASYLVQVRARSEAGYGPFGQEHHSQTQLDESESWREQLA
From the text: (A) In situ hybridization with antisense probes for ephrin B2 and EphB4 with corresponding H&E stained section to show tumor architecture. Dark blue color in the ISH indicates positive reaction for ephrin B2. No signal for EphB4 was detected in the Kaposi's sarcoma biopsy. For contrast, ISH signal for EphB4 is strong in squamous cell carcinoma tumor cells. Ephrin B2 was also detected in KS using EphB4-AP fusion protein (bottom left). (B) Detection of ephrin B2 with EphB4/Fc fusion protein. Adjacent sections were stained with H&E (left) to show tumor architecture, black rectangle indicates the area shown in the EphB4/Fc treated section (middle) detected with FITC-labeled anti-human Fc antibody as described in the methods section. As a control an adjacent section was treated with human Fc fragment (right). Specific signal arising from EphB4/Fc binding to the section is seen only in areas of tumor cells. (C) Co-expression of ephrin B2 and the HHV8 latency protein LANA1. […] Coexpression is seen as yellow color.
Immunofluorescence detection of EphrinB2 with EPHB4-Fc was done as follows. Frozen sections fixed in 4% paraformaldehyde and blocked with 20% FBS were incubated with 5 μg/ml EphB4/Fc (R&D Systems) for 1 h at RT. Sections were then incubated with 10 μg/ml rabbit anti-human IgG-FITC in PBS (Jackson ImmunoResearch Laboratories West Grove, Pa.) at RT for 1 hour. […]

[2] = molecular target: T2, B4ECv3NT protein (soluble extracellular domain of human EphB4 without epitope or purification tags) (human, UniProt P54760 16-537); experiment: biochemical assays with B2EC-AP reagent
T2 construct: also called EphB4ECnt; B4EC-NT
T2 sequence: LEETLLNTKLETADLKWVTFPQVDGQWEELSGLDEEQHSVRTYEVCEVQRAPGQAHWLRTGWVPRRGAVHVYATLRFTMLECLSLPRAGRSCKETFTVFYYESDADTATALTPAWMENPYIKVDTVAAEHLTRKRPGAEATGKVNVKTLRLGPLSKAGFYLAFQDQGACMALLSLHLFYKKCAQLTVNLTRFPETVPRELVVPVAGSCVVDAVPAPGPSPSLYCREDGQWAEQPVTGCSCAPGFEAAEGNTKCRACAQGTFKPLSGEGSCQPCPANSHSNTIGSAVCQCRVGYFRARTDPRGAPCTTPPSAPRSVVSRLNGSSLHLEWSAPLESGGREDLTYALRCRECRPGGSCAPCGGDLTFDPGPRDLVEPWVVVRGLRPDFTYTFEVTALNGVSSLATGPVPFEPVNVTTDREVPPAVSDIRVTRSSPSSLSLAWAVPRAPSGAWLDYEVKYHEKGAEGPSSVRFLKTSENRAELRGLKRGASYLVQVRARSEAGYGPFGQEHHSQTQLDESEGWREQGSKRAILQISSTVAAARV

[3] = molecular target: T3, B4ECv3 protein (soluble extracellular domain of human EphB4 with V5 epitope tag and 6xHis tag on its … (human, UniProt P54760 16-537)); experiment: B4ECv3 on Ni-NTA-agarose, B2-AP at 50 nM, PNPP colour
T3 construct: also called EphB4ECv3; hB4ECv3
T3 sequence: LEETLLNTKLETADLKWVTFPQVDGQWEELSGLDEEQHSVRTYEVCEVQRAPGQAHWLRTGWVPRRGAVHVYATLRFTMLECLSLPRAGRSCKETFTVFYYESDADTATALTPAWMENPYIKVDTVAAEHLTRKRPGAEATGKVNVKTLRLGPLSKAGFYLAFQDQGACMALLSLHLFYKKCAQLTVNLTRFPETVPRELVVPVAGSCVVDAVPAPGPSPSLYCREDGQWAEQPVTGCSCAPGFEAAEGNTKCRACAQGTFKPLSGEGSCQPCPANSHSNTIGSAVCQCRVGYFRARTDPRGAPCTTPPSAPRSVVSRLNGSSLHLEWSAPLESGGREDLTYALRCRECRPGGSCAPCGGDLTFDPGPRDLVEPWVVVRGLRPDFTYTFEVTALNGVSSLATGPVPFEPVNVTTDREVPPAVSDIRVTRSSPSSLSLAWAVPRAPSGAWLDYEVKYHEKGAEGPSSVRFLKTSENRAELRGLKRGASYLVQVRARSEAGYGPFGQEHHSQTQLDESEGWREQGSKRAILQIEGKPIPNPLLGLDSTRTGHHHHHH
Experimental: 10 µl of Ni-NTA-Agarose were incubated in microcentrifuge tubes with 50 µl of indicated amount of B4ECv3 diluted in binding buffer BB (20 mM Tris-HCl, 0.15 M NaCl, 0.1% bovine serum albumin pH 8) After incubation for 30 min on shaking platform, Ni-NTA beads were washed twice with 1.4 ml of BB, followed by application of 50 µl of B2-AP in the final concentration of 50 nM. Binding was performed for 30 min on shaking platform, and then tubes were centrifuged and washed one time with 1.4 ml of BB. Amount of precipitated AP was measured […] after application of PNPP.

[4] = molecular target: T4, B4-GCF1 protein (globular, Cys-rich and first FNIII domain of human EphB4, C-terminally 6xHis tagged) (human, UniProt P54760 16-427); experiment: Ephrin B2-AP on B4 proteins immobilized on Ni2+-resin or on nitrocellulose membrane
T4 construct: Range is numbered on mature EphB4
T4 sequence: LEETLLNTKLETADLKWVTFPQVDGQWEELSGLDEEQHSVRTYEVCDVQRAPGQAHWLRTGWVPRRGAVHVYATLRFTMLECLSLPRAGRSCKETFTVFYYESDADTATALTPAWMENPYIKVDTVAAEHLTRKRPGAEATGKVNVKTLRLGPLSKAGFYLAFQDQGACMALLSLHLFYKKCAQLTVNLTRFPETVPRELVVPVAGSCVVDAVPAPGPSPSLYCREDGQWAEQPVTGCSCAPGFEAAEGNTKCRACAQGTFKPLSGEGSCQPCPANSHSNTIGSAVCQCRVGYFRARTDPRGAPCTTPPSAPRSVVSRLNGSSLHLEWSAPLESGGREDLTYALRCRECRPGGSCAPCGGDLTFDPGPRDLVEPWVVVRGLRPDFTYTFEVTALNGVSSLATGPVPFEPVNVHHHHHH
Experimental: (§1) To confirm ability of the purified recombinant proteins to bind Ephrin B2, they were tested in an in vitro binding assay. As expected, GC, GCF1 and GCF2, but not CF2 are binding the cognate ligand Ephrin B2 as confirmed by interaction between Ephrin B2-alkaline phosphatase (Ephrin B2-AP) fusion protein with the B4 proteins immobilized on Ni^2+-resin or on nitrocellulose membrane (FIG. 17).
(§2) To test ligand binding properties of the proteins, 10 µl of Ni-NTA-Agarose (Qiagen) were incubated in microcentrifuge tubes with 10-500 ng sample of a B4-ECD protein diluted in 0.5 ml of binding buffer BB (20 mM Tris-HCl, 0.15 M NaCl, 0.1% bovine serum albumin, pH 8). After incubation for 30 min on shaking platform, Ni-NTA beads were washed twice with 1.4 ml of BB, followed by addition of B2-AP fusion protein at concentration of 50 nM. Binding was performed for 30 min on a shaking platform. Tubes were centrifuged and washed once with 1.4 ml of BB. Amount of precipitated AP was measured colorimetrically at 420 nm after application of p-nitrophenyl phosphate (PNPP) and incubation for 5-30 min.

[5] = molecular target: T5, B4-GC protein (globular domain and Cys-rich domain of human EphB4, C-terminally 6xHis tagged) (human, UniProt P54760 16-327); experiment: as above
T5 construct: Range is numbered on mature EphB4
T5 sequence: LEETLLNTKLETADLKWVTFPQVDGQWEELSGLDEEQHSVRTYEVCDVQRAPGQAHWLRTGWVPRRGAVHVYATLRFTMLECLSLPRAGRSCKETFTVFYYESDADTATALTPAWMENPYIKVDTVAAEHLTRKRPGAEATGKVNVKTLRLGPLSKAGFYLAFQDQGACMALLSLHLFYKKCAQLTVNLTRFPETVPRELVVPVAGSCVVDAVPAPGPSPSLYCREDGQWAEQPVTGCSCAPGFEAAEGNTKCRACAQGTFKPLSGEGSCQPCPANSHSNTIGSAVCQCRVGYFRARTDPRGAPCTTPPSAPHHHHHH
Experimental: as §1, §2

[6] = molecular target: T6, B4-GCF2 protein (complete extracellular part of human EphB4, C-terminally 6xHis tagged) (human, UniProt P54760 16-537); experiment: as above
T6 construct: Range 1-522 is numbered on mature EphB4 (after leader removal)
T6 sequence: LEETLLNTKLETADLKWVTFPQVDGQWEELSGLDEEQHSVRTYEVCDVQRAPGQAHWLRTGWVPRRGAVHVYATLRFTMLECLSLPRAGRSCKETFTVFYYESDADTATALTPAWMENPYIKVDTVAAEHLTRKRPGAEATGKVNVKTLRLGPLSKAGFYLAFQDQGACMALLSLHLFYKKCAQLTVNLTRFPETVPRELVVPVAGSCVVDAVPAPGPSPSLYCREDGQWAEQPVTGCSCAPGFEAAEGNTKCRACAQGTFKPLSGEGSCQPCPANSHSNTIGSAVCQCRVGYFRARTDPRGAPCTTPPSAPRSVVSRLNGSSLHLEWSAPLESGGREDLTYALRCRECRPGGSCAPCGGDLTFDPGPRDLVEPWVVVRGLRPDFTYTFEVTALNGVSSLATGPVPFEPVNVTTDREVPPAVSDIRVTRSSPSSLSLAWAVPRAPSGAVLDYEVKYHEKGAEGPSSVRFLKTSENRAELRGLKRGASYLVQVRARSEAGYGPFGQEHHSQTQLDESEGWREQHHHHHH
Experimental: as §1, §2

Measured: binding result

B1: ephrin B2 on tumor cells of human Kaposi's sarcoma biopsy sections (ligand)
chain: IVLEPIYWNSSNSKFLPGQGLVLYPQIGDKLDIICPKVDSKTVGQYEYYKVYMVDKDQADRCTIKKENTPLLNCAKPDQDIKFTIKFQEFSPNLWGLEFQKNKDYYIISTSNGSLEGLDNQEGGVCQTRAMKILMKVGQDASSAGSTRNKDPTRRPELEAGTNGRSSTTSPFVKPNPGSSTDGNSAGHSGNNILGSEVALFAGIASGCIIFIVIIITLVVLLLKYRRRHRKHSPQHTTTLSLSTLATPKRSGNNNGSEPSDIIIPLRTADSVFCPHYEKVSGDYGHPVYIVQEMPPQSPANIYYKV
binds: [1]

B2: Ephrin B2-alkaline phosphatase (Ephrin B2-AP) fusion protein (protein fusion of Ephrin B2 ectodomain with placental alkaline phosphatase) (ligand)
chain: IVLEPIYWNSSNSKFLPGQGLVLYPQIGDKLDIICPKVDSKTVGQYEYYKVYMVDKDQADRCTIKKENTPLLNCAKPDQDIKFTIKFQEFSPNLWGLEFQKNKDYYIISTSNGSLEGLDNQEGGVCQTRAMKILMKVGQDASSAGSTRNKDPTRRPELEAGTNGRSSTTSPFVKPNPGSSTDGNSAGHSGNNILGSEVALFA
notes: also called B2EC-AP; B2ECAP; not shown: placental alkaline phosphatase from the pAPTag2 vector (GenHunter)
binds: [2] | [3] | [4] | [5] | [6]
